We go through six molecules from patent US12060408B2, “Screening assays, modulators and modulation of activation of Receptor for Advanced Glycation End-products (RAGE)” (Monash University, priority 2017, dated 2024).

Ends that are not written are not given here.

Common to all, as to assay type: cell-based
The target in assay [1] is T1, AT1 (Homo sapiens, UniProt P30556).
T1 sequence (P30556 1-359): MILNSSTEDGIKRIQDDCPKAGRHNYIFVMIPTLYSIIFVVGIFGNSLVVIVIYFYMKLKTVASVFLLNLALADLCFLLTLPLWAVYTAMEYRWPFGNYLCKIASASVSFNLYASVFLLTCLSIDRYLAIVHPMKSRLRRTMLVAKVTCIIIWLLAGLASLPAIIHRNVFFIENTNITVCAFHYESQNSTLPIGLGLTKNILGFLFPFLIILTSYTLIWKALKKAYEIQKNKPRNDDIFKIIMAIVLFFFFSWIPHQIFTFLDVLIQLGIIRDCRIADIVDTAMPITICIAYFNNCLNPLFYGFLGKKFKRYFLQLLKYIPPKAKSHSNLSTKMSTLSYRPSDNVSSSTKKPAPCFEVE
In words: BRET between mCherry/RAGE338-361 and luciferase-tagged AT1. Also on record: expressed in transfected cells; host or cells: HEK293FT, transient. The procedure:
FIG. 21A. BRET between mCherry/RAGE338-361 and Nluc/AT1 is increased with Ang II. Data are presented as mean±SEM; n=3-5.
FIG. 21D. Lack of Ang II-induced BRET signal between AT1/Rluc8 and mCherry/RAGE338-361 where cells were transfected with 50 ng AT1/Rluc8 cDNA, 300 ng RAGE/Venus cDNA and 0, 50, 100, 200, 300 or 400 ng of mCherry/RAGE338-361 CDNA or pcDNA3 control plasmid as indicated. Data are presented as mean±SEM; n=3-4. Filters: mCherry 650 nm/Rluc8 450 nm.
(§1) Bioluminescence Resonance Energy Transfer (BRET)
BRET is an established technology for studying protein-protein proximity in live cells, particularly involving GPCRs (Pfleger and Eidne, 2006). […]
(§2) Plasmids were transiently co-expressed in human embryonic kidney (HEK) 293FT cells and BRET measurements taken at 37° C. using a POLARstar Omega or LUMIstar plate reader (BMG Labtech, Mornington, Victoria, Australia) with 460-490 nm (‘donor emission’) and 520-550 nm (‘acceptor emission’) filters, or a VICTOR Light plate reader (Perkin Elmer, Glen Waverley, Victoria, Australia) with 400-475 nm (‘donor emission’) and 520-540 nm (‘acceptor emission’) filters, or a CLARIOstar plate reader (BMG Labtech, Mornington, Victoria, Australia) with 420-480 nm (‘donor emission’) and 520-620 nm (‘acceptor emission’) filters. […]
On the technique in general: Bioluminescence resonance energy transfer reports proximity on the nanometre scale.

Assay [2] relates to Human microvascular endothelial cells (HMEC). Kind of assay: Ang II-induced pro-inflammatory signalling (ICAM-1, MCP-1 RT-PCR) in HMEC. The settings on record: overexpression of construct. The method, then:
Primary aortic endothelial cells (PMAEC) were isolated from the aortae of (wild-type) C57bl6 mice and AGER KO mice and cultured in Dulbecco's modified Eagle's medium (DMEM)/F12 endothelial cell growth supplement (ECGS) supplemented media. Chinese Hamster Ovary (CHO) cells were cultured using F12 media (10% FCS with 2 mM glutamine). Human microvascular endothelial cells (HMEC) were cultured in MCDB 131 medium (10% FCS with 10 mM glutamine, EGF and hydrocortisone).
Cellular Expression of Pro-Inflammatory Markers and Mediators by Quantitative Real-Time PCR
After 2 hours of exposure to Ang II (1 μM) or the RAGE ligand, S100A8/A9 (5 ng/ml) cells were placed in Trizol, mRNA extracted and cDNA synthesized. Changes in the gene expression of the NFκB subunit, p65 (RelA) or NFκB-activated target genes (e.g ICAM-1, VCAM-1) were estimated by quantitative real-time RT-PCR, performed using the TaqMan system based on real-time detection of accumulated fluorescence (ABI Prism 7700, Perkin-Elmer Inc, PE Biosystems, Foster City, CA, USA). Gene expression was normalized to 18S mRNA and reported as fold change compared to the level of expression in untreated control mice/cells, which were given an arbitrary value of 1.

In assay [3] the target is T2, CXCR2 (Homo sapiens, UniProt P25025).
T2 construct: expressed in transfected cells; host or cells: HEK293FT, transient
T2 sequence (P25025 whole entry): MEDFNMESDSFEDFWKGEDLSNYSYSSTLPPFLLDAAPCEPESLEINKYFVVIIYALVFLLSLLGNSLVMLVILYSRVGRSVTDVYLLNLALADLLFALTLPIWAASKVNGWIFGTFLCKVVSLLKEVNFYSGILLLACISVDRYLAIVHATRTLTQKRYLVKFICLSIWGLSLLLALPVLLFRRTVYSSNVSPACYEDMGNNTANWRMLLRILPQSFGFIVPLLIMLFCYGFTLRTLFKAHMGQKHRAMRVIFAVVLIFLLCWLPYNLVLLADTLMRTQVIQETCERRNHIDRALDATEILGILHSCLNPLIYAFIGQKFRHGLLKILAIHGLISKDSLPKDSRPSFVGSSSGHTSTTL
T2 sequence (P32121 whole entry partner): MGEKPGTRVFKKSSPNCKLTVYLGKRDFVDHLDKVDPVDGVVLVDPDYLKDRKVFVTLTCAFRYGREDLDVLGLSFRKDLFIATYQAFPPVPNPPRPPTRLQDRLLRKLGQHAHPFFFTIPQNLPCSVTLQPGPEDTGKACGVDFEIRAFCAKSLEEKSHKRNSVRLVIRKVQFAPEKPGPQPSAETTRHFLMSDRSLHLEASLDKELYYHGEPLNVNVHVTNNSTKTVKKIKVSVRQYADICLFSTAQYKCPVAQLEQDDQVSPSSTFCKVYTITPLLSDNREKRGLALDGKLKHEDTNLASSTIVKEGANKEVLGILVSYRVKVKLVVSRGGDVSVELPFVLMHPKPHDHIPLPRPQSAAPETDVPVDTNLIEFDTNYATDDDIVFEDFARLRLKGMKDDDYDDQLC
Kind of assay: Receptor-HIT BRET, β-arr2/Venus with RAGE/Rluc8 and CXCR2. Conditions: in the presence of CXCR2.
Text: as §1
(§3) BRET is an established technology for studying protein-protein proximity in live cells, particularly involving GPCRs (Pfleger and Eidne, 2006). One protein of interest was linked to a bioluminescent donor enzyme, Rluc8, a variant of Renilla luciferase, and a second linked to an acceptor fluorophore, Venus, a variant of green fluorescent protein. If in close proximity (<10 nm), energy resulting from the rapid oxidation of a cell-permeable coelenterazine substrate by the donor can transfer to the acceptor, which in turn fluoresces at a longer characteristic wavelength.
as §2
(§4) For BRET kinetic assays, the final pre-treatment reading is presented at the zero time point (time of ligand/vehicle addition). […]

The target of assay [4] is T3, CXCR1 (Homo sapiens, UniProt P25024).
T3 construct: expressed in transfected cells; host or cells: HEK293FT, transient
T3 sequence (P25024 whole entry, species assumed): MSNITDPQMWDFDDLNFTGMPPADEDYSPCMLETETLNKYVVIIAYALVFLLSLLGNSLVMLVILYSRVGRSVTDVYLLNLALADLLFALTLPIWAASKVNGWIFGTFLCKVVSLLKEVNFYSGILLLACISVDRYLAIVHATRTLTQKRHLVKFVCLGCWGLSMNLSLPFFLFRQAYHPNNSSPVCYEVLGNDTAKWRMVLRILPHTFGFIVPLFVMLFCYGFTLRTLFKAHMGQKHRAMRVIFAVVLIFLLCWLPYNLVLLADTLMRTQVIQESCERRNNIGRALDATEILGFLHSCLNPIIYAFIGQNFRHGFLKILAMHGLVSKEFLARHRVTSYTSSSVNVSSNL
T3 sequence (P32121 whole entry partner, species assumed): as the sequence (P32121 whole entry partner) above
Kind of assay: Receptor-HIT BRET, β-arr2/Venus with RAGE/Rluc8 and CXCR1. Conditions: in the presence of CXCR1.
Text: as §1, §3, §2, §4

Assay [5] concerns the target T4, CXCR4 (Homo sapiens, UniProt P61073).
T4 construct: expressed in transfected cells; host or cells: HEK293FT, transient
In words: Receptor-HIT BRET, β-arr2/Venus with RAGE/Rluc8 and CXCR4. The settings on record: in the presence of CXCR4.
Text: as §1, §3, §2, §4

For assay [6], the target named is T5, CXCR3 (Homo sapiens, UniProt P49682).
T5 construct: expressed in transfected cells; host or cells: HEK293FT, transient
T5 sequence (P49682 whole entry, species assumed): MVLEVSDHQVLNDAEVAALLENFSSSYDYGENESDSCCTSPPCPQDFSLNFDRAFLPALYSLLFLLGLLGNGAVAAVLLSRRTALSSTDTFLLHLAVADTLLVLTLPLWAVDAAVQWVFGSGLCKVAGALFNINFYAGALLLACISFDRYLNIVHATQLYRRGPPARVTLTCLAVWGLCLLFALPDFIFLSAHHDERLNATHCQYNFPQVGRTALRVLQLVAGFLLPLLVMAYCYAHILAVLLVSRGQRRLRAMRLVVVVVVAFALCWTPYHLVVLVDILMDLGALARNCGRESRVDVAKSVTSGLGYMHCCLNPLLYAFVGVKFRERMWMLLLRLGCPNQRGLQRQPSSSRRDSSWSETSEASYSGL
T5 sequence (P32121 whole entry partner, species assumed): as the sequence (P32121 whole entry partner) above
Kind of assay: Receptor-HIT BRET, β-arr2/Venus with RAGE/Rluc8 and CXCR3. The settings on record: in the presence of CXCR3.
Text: as §1, §3, §2, §4

Assay [7] deals with T6, CCR10 (Homo sapiens, UniProt P46092).
T6 construct: expressed in transfected cells; host or cells: HEK293FT, transient
T6 sequence (P46092 whole entry): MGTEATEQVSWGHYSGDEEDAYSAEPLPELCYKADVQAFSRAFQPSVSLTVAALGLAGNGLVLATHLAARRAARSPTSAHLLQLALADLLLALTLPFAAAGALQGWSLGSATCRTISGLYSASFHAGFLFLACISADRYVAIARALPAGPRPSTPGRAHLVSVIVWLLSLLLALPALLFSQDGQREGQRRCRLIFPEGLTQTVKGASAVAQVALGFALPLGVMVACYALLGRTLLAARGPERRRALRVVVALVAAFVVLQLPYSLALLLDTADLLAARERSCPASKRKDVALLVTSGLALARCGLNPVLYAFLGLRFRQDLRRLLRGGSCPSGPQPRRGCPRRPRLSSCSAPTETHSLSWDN
T6 sequence (P32121 whole entry partner): as the sequence (P32121 whole entry partner) above
In words: Receptor-HIT BRET, β-arr2/Venus with RAGE/Rluc8 and CCR10. Conditions: in the presence of CCR10.
Text: as §1, §3, §2, §4

The target of assay [8] is T7, CXCR6 (Homo sapiens, UniProt O00574).
T7 construct: expressed in transfected cells; host or cells: HEK293FT, transient
T7 sequence (O00574 whole entry): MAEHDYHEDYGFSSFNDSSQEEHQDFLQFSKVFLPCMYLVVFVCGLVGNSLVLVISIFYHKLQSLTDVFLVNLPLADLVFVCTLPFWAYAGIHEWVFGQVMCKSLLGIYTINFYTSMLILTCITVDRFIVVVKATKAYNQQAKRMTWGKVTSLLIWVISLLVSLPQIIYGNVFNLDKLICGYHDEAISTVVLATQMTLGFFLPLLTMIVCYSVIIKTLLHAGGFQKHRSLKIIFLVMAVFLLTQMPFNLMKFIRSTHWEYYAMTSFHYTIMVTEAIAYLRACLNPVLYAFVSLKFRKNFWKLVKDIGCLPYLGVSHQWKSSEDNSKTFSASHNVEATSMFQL
T7 sequence (P32121 whole entry partner): as the sequence (P32121 whole entry partner) above
In words: Receptor-HIT BRET, β-arr2/Venus with RAGE/Rluc8 and CXCR6. Conditions: in the presence of CXCR6.
Text: as §1, §3, §2, §4

T4 sequence (P61073 whole entry): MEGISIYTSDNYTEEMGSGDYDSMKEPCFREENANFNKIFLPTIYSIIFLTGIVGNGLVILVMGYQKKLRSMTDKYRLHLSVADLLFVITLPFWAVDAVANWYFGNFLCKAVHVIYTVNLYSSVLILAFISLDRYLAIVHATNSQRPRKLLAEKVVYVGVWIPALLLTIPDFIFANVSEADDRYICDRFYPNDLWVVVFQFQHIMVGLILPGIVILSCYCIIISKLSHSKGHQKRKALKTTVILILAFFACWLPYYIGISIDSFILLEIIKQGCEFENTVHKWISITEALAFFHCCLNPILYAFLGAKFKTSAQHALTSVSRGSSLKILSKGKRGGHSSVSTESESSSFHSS
T4 sequence (P32121 whole entry partner): as the sequence (P32121 whole entry partner) above

On to “mCherry/RAGE338-361: mCherry fusion of RAGE338-361 (LGTLALALGILGGLGTAALLIGVI; also: mCherry fusion)”, for which the “Ang II-induced BRET signal with AT1/Rluc8” value in assay [1] (cells also transfected with RAGE/Venus cDNA, filters mCherry 650 nm/Rluc8 450 nm) is “Lack of”. The “BRET with Nluc/AT1” value in assay [1] (with Ang II) is reported as “increased”. In addition, the “inhibition of Ang II-induced ICAM-1 expression” value in assay [2] is “inhibited”.
In the case of “CXCL8: chemokine ligand used to activate CXCR1 and CXCR2”, the figures for the “recruitment of β-arr2/Venus proximal to RAGE/Rluc8” value (“recruitment … to RAGE/Rluc8” below) in assay [3] and in assay [4] were “recruitment” and “Weak”, respectively.
Take “CXCL 12: chemokine ligand used to activate CXCR4”: in assay [5], the “β-arr2/Venus proximity to RAGE/Rluc8” value was “reduction”.
As to “CXCL11: chemokine ligand used to activate CXCR3”, the “recruitment … to RAGE/Rluc8” value in assay [6] is recorded as “Lack of”.

B1: CCL27: chemokine ligand used to activate CCR10 (protein)
chain: FLLPPSTACCTQLYRKPLSDKLLRKVIQVELQEADGDCHLQAFVLHLAQRSICIHPQNPSLSQWFEHQERKLHGTLPKLNFGMLRKMG
On to B1, for which, in assay [7], the “recruitment … to RAGE/Rluc8” value is “Lack of”.

B2: CXCL16: chemokine ligand used to activate CXCR6 (protein)
chain: NEGSVTGSCYCGKRISSDSPPSVQFMNRLRKHLRAYHRCLYYTRFQLLSWSVCGGNKDPWVQELMSCLDLKECGHAYSGIVAHQKHLLP
On to B2, for which the “recruitment … to RAGE/Rluc8” value in assay [8] is listed as “recruitment”.
